{"source": "patent US20250019439A1", "about": "(Adimab, published 2025)", "binders": {"B1": {"name": "ADI-34133 (antibody, V domains shown)", "VH": "QVQLVQSGAEVKKPGSSVKVSCKASGGTFSSYAISWVRQAPGQGLEWMGGIIPIFGTANYAQKFQGRVTITADESTSTAYMELSSLRSEDTAVYYCARGAPNYYGSGGYDDGWFDPWGQGTLVTVSS", "VL": "not shown", "notes": "anti-ID IgG"}}, "key": {"[1]": {"molecular_target": "T1, ADI-22523 IgG", "T1 construct": "anti-CD3 IgG", "T1 sequence (VH, as listed by the source limits assumed, chain 1 of 2)": "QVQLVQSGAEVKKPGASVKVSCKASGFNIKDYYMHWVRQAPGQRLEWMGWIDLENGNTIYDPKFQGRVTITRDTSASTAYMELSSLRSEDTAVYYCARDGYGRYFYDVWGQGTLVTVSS", "T1 sequence (VL, as listed by the source limits assumed, chain 2 of 2)": "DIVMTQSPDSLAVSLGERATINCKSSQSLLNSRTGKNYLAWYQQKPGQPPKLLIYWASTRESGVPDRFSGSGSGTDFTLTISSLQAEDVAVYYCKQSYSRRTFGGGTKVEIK", "assay": "BLI; tip anti-ID IgG, solution ADI-22523 IgG", "in_short": "(§1)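 Sensors carrying captured anti-ID IgG were equilibrated 30 min in assay buffer before a 60 s baseline. Equilibrium KD was taken as koff/kon from a 1:1 model.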"}, "[2]": {"molecular_target": "T2, ADI-26921 IgG", "T2 construct": "anti-CD3 IgG", "T2 sequence (VH, as listed by the source limits assumed, chain 1 of 2)": "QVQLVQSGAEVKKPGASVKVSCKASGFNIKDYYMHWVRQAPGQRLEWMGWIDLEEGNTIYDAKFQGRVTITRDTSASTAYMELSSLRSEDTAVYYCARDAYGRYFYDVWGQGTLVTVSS", "T2 sequence (VL, as listed by the source limits assumed, chain 2 of 2)": "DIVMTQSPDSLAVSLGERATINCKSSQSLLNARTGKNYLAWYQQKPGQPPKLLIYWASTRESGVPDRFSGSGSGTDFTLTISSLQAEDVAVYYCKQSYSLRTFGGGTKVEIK", "assay": "SPR Carterra avidity, yeast anti-ID", "in_short": "(§2)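 Surface plasmon resonance on a Carterra LSA at 25° C, HBSTE buffer. The anti-CD3 antibody is Fc-captured (100 nM, 5 min) and the anti-idiotype antibody serves as analyte; dissociation lasts 300s and the surface is regenerated with 10 mM glycine pH 1.7.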"}, "[3]": {"molecular_target": "T3, ADI-67450", "T3 construct": "anti-CD3 antibody made in CHO cells, captured by anti-human Fc", "assay": "SPR Carterra avidity, yeast anti-ID", "in_short": "as §2"}, "[4]": {"molecular_target": "T4, ADI-26912", "T4 construct": "anti-CD3 antibody made in CHO cells, captured by anti-human Fc", "T4 sequence (VH, as listed by the source, chain 1 of 2)": "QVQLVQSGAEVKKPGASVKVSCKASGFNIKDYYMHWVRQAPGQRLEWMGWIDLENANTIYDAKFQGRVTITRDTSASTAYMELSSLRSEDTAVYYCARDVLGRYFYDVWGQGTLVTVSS", "T4 sequence (VL, as listed by the source, chain 2 of 2)": "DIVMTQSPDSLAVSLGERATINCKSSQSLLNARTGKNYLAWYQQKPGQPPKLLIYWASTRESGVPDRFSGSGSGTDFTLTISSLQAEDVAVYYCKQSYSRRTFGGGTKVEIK", "assay": "SPR Carterra avidity, yeast anti-ID", "in_short": "as §2"}, "[5]": {"molecular_target": "T5, ADI-26943", "T5 construct": "anti-CD3 antibody made in CHO cells, captured by anti-human Fc", "assay": "SPR Carterra avidity, yeast anti-ID", "in_short": "as §2"}, "[6]": {"molecular_target": "T6, ADI-48587", "T6 construct": "pH-dependent anti-CD3 antibody made in CHO cells", "assay": "SPR Carterra avidity, yeast anti-ID", "in_short": "as §2"}, "[7]": {"molecular_target": "T7, ADI-50024", "T7 construct": "anti-CD3 antibody made in CHO cells, captured by anti-human Fc", "T7 sequence (VH, as listed by the source limits assumed, chain 1 of 2)": "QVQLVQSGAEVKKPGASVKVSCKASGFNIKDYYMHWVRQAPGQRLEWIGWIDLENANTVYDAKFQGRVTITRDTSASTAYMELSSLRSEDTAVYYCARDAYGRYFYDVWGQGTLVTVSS", "T7 sequence (VL, as listed by the source limits assumed, chain 2 of 2)": "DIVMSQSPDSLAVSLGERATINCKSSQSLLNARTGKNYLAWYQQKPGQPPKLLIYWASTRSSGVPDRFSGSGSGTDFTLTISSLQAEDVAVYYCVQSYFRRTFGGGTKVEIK", "assay": "SPR Carterra avidity, yeast anti-ID", "in_short": "as §2"}, "[8]": {"molecular_target": "T8, ADI-70326", "T8 construct": "anti-CD3 antibody made in CHO cells, captured by anti-human Fc", "assay": "SPR Carterra avidity, yeast anti-ID", "in_short": "as §2"}, "[9]": {"molecular_target": "T9, ADI-26913 IgG", "T9 construct": "anti-CD3 IgG", "assay": "SPR Carterra avidity, yeast anti-ID", "in_short": "as §2"}, "[10]": {"molecular_target": "T10, ADI-74966", "T10 construct": "pH-dependent anti-CD3 antibody made in CHO cells", "assay": "SPR Carterra avidity, yeast anti-ID", "in_short": "as §2"}, "[11]": {"molecular_target": "T11, ADI-26916 IgG", "T11 construct": "anti-CD3 IgG", "assay": "SPR Carterra avidity, yeast anti-ID", "in_short": "as §2"}, "[12]": {"molecular_target": "T12, ADI-76362", "T12 construct": "anti-CD3 antibody made in CHO cells, captured by anti-human Fc", "assay": "SPR Carterra avidity, yeast anti-ID", "in_short": "as §2"}, "[13]": {"molecular_target": "T13, ADI-48650", "T13 construct": "pH-dependent anti-CD3 antibody made in CHO cells", "T13 sequence (VH, as listed by the source, chain 1 of 2)": "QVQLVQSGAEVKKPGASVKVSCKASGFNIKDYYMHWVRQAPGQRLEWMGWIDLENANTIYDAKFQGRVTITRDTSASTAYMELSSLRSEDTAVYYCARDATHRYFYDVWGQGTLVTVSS", "T13 sequence (VL, as listed by the source, chain 2 of 2)": "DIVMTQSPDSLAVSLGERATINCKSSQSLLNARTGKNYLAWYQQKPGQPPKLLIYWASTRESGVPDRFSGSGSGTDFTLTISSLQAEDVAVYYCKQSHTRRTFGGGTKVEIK", "assay": "SPR Carterra avidity, yeast anti-ID", "in_short": "as §2"}, "[14]": {"molecular_target": "T14, ADI-74967", "T14 construct": "pH-dependent anti-CD3 antibody made in CHO cells", "assay": "SPR Carterra avidity, yeast anti-ID", "in_short": "as §2"}, "[15]": {"molecular_target": "T15, ADI-26909", "T15 construct": "anti-CD3 antibody made in CHO cells, captured by anti-human Fc", "T15 sequence (VH, as listed by the source limits assumed, chain 1 of 2)": "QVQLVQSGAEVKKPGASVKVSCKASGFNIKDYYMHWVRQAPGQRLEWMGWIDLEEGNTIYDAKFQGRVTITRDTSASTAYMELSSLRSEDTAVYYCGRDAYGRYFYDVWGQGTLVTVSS", "assay": "SPR Carterra avidity, yeast anti-ID", "in_short": "as §2"}, "[16]": {"molecular_target": "T16, ADI-76361", "T16 construct": "anti-CD3 antibody made in CHO cells, captured by anti-human Fc", "T16 sequence (VH, as listed by the source, chain 1 of 2)": "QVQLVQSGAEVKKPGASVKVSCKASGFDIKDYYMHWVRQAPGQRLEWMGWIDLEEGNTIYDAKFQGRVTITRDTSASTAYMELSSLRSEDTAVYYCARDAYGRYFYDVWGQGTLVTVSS", "assay": "SPR Carterra avidity, yeast anti-ID", "in_short": "as §2"}, "[17]": {"molecular_target": "T17, ADI-74968", "T17 construct": "pH-dependent anti-CD3 antibody made in CHO cells", "assay": "SPR Carterra avidity, yeast anti-ID", "in_short": "as §2"}, "[18]": {"molecular_target": "T18, ADI-67447", "T18 construct": "anti-CD3 antibody made in CHO cells, captured by anti-human Fc", "assay": "SPR Carterra avidity, yeast anti-ID", "in_short": "as §2"}, "[19]": {"molecular_target": "T19, ADI-26915", "T19 construct": "anti-CD3 antibody made in CHO cells, captured by anti-human Fc", "T19 sequence (VH, as listed by the source, chain 1 of 2)": "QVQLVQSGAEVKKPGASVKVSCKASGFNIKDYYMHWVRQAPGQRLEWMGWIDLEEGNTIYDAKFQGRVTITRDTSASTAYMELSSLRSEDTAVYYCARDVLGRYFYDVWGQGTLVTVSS", "assay": "SPR Carterra avidity, yeast anti-ID", "in_short": "as §2"}, "[20]": {"molecular_target": "T20, ADI-26924", "T20 construct": "anti-CD3 antibody made in CHO cells, captured by anti-human Fc", "T20 sequence (VH, as listed by the source, chain 1 of 2)": "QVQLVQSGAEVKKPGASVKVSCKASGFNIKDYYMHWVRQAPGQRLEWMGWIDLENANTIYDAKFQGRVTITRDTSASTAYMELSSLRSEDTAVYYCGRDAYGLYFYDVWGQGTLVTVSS", "assay": "SPR Carterra avidity, yeast anti-ID", "in_short": "as §2"}, "[21]": {"molecular_target": "T21, ADI-70330", "T21 construct": "anti-CD3 antibody made in CHO cells, captured by anti-human Fc", "T21 sequence (VH, as listed by the source limits assumed, chain 1 of 2)": "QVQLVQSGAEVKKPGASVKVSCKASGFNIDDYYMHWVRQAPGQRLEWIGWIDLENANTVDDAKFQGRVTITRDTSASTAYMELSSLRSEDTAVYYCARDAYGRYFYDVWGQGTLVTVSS", "assay": "SPR Carterra avidity, yeast anti-ID", "in_short": "as §2"}, "[22]": {"molecular_target": "T22, ADI-76360", "T22 construct": "anti-CD3 antibody made in CHO cells, captured by anti-human Fc", "T22 sequence (VH, as listed by the source, chain 1 of 2)": "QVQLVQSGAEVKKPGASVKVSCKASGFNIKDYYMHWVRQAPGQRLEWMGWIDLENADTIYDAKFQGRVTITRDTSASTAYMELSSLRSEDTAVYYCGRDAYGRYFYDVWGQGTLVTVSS", "assay": "SPR Carterra avidity, yeast anti-ID", "in_short": "as §2"}, "[23]": {"molecular_target": "T23, ADI-74965", "T23 construct": "pH-dependent anti-CD3 antibody made in CHO cells", "assay": "SPR Carterra avidity, yeast anti-ID", "in_short": "as §2"}, "[24]": {"molecular_target": "T24, ADI-76357", "T24 construct": "anti-CD3 antibody made in CHO cells, captured by anti-human Fc", "T24 sequence (VH, as listed by the source, chain 1 of 2)": "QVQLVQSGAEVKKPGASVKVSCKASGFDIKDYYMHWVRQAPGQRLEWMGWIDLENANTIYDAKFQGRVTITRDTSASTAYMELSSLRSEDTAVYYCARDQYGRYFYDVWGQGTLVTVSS", "assay": "SPR Carterra avidity, yeast anti-ID", "in_short": "as §2"}, "[25]": {"molecular_target": "T25, ADI-70327", "T25 construct": "anti-CD3 antibody made in CHO cells, captured by anti-human Fc", "T25 sequence (VH, as listed by the source limits assumed, chain 1 of 2)": "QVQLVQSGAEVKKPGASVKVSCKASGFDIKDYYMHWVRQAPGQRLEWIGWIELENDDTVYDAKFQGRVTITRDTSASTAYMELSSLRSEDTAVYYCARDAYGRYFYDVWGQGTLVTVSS", "assay": "SPR Carterra avidity, yeast anti-ID", "in_short": "as §2"}, "[26]": {"molecular_target": "T26, ADI-67445", "T26 construct": "anti-CD3 antibody made in CHO cells, captured by anti-human Fc", "T26 sequence (VH, as listed by the source limits assumed, chain 1 of 2)": "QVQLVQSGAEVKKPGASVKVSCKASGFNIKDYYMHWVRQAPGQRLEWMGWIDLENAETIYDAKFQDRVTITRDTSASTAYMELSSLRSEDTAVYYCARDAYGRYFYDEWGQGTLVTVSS", "assay": "SPR Carterra avidity, yeast anti-ID", "in_short": "as §2"}, "[27]": {"molecular_target": "T27, ADI-76358", "T27 construct": "anti-CD3 antibody made in CHO cells, captured by anti-human Fc", "assay": "SPR Carterra avidity, yeast anti-ID", "in_short": "as §2"}, "[28]": {"molecular_target": "T28, ADI-76359", "T28 construct": "anti-CD3 antibody made in CHO cells, captured by anti-human Fc", "T28 sequence (VH, as listed by the source, chain 1 of 2)": "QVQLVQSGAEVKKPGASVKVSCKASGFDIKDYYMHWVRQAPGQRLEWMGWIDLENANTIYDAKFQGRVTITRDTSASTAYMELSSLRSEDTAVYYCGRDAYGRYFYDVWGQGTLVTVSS", "assay": "SPR Carterra avidity, yeast anti-ID", "in_short": "as §2"}, "[29]": {"molecular_target": "T29, ADI-22523 Fab", "T29 construct": "anti-CD3 Fab by papain digestion of the IgG", "assay": "BLI; tip anti-ID IgG, solution ADI-22523 Fab", "in_short": "as §1"}, "[30]": {"molecular_target": "T30, ADI-26906 IgG", "T30 construct": "anti-CD3 IgG", "T30 sequence (VH, as listed by the source limits assumed, chain 1 of 2)": "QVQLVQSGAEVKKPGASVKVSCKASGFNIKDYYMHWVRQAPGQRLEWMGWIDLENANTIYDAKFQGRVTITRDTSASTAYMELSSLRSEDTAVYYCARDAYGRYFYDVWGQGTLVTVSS", "assay": "SPR Carterra avidity, yeast anti-ID, *koff limit", "in_short": "as §2"}, "[31]": {"molecular_target": "T31, ADI-26920 IgG", "T31 construct": "anti-CD3 IgG", "assay": "SPR Carterra avidity, yeast anti-ID, *koff limit", "in_short": "as §2"}, "[32]": {"molecular_target": "T32, ADI-26919", "T32 construct": "anti-CD3 antibody made in CHO cells, captured by anti-human Fc", "assay": "SPR Carterra avidity, yeast anti-ID, *koff limit", "in_short": "as §2"}, "[33]": {"molecular_target": "T33, ADI-48576", "T33 construct": "pH-dependent anti-CD3 antibody made in CHO cells", "assay": "SPR Carterra, yeast anti-ID", "in_short": "as §2"}, "[34]": {"molecular_target": "T34, CTL-62228", "T34 construct": "also called glofitamab", "assay": "SPR Carterra, yeast anti-ID", "in_short": "as §2"}, "[35]": {"molecular_target": "T35, CTL-62240", "T35 construct": "also called ONO-4685", "assay": "SPR Carterra, yeast anti-ID", "in_short": "as §2"}, "[36]": {"molecular_target": "T36, CTL-62227", "T36 construct": "also called odronextamab", "assay": "SPR Carterra, yeast anti-ID", "in_short": "as §2"}, "[37]": {"molecular_target": "T37, ADI-48592", "T37 construct": "pH-dependent anti-CD3 antibody made in CHO cells", "assay": "SPR Carterra, yeast anti-ID", "in_short": "as §2"}}, "data": [{"binder": "B1", "values": [{"measurement": "Kd", "setting": "[1]", "result": 0.59, "unit": "nM"}, {"measurement": "Kd", "setting": "[2]", "result": 0.96, "unit": "nM"}, {"measurement": "Kd", "setting": "[3]", "result": 2, "unit": "nM"}, {"measurement": "Kd", "setting": "[4]", "result": 52, "unit": "nM"}, {"measurement": "Kd", "setting": "[5]", "result": 0.65, "unit": "nM"}, {"measurement": "Kd", "setting": "[6]", "result": 20, "unit": "nM"}, {"measurement": "Kd", "setting": "[7]", "result": 1.1, "unit": "nM"}, {"measurement": "binding result", "setting": "[8]", "result": "binds"}, {"measurement": "Kd", "setting": "[9]", "result": 1.9, "unit": "nM"}, {"measurement": "binding result", "setting": "[10]", "result": "binds"}, {"measurement": "binding result", "setting": "[11]", "result": "binds"}, {"measurement": "Kd", "setting": "[12]", "result": 2, "unit": "nM"}, {"measurement": "Kd", "setting": "[13]", "result": 40, "unit": "nM"}, {"measurement": "Kd", "setting": "[14]", "result": 1.9, "unit": "nM"}, {"measurement": "Kd", "setting": "[15]", "result": 1.3, "unit": "nM"}, {"measurement": "Kd", "setting": "[16]", "result": 0.91, "unit": "nM"}, {"measurement": "Kd", "setting": "[17]", "result": 8.2, "unit": "nM"}, {"measurement": "Kd", "setting": "[18]", "result": 1.3, "unit": "nM"}, {"measurement": "binding result", "setting": "[19]", "result": "binds"}, {"measurement": "Kd", "setting": "[20]", "result": 1.1, "unit": "nM"}, {"measurement": "Kd", "setting": "[21]", "result": 1.9, "unit": "nM"}, {"measurement": "Kd", "setting": "[22]", "result": 1.7, "unit": "nM"}, {"measurement": "Kd", "setting": "[23]", "result": 18, "unit": "nM"}, {"measurement": "Kd", "setting": "[24]", "result": 0.96, "unit": "nM"}, {"measurement": "binding result", "setting": "[25]", "result": "binds"}, {"measurement": "Kd", "setting": "[26]", "result": 1.1, "unit": "nM"}, {"measurement": "binding result", "setting": "[27]", "result": "binds"}, {"measurement": "Kd", "setting": "[28]", "result": 0.24, "unit": "nM"}, {"measurement": "Kd", "setting": "[29]", "result": 9.59, "unit": "nM"}, {"measurement": "Kd", "setting": "[30]", "result": 0.3, "unit": "nM"}, {"measurement": "Kd", "setting": "[31]", "result": 0.24, "unit": "nM"}, {"measurement": "Kd", "setting": "[32]", "result": 0.35, "unit": "nM"}, {"measurement": "binding result", "setting": "[33]", "result": "no binding (tested: up to 200 nM)"}, {"measurement": "binding result", "setting": "[34]", "result": "no binding (tested: up to 200 nM)"}, {"measurement": "binding result", "setting": "[35]", "result": "no binding (tested: up to 200 nM)"}, {"measurement": "binding result", "setting": "[36]", "result": "no binding (tested: up to 200 nM)"}, {"measurement": "binding result", "setting": "[37]", "result": "no binding (tested: up to 200 nM)"}]}]}
